Assay results: patent publication US20250213684A1 (Novartis, published 2025)

Assays:
[1] = target: T1, TIM-3 (antigen; species and construct not stated for the assay) (UniProt Q8TDQ0 22-202, limits assumed); assay: SPR (Biacore), run of May 30, 2014
[2] = target: T2, huTIM-3/his (human, UniProt Q8TDQ0 22-202); assay: SPR (Biacore), run 2
T2 construct: also called hTIM-3/his antigen

[3] = target: T3, cynoTIM-3/Fc (cynomolgus monkey, UniProt A0A2K5U3G7 22-195); assay: SPR (Biacore), run 2
T3 sequence: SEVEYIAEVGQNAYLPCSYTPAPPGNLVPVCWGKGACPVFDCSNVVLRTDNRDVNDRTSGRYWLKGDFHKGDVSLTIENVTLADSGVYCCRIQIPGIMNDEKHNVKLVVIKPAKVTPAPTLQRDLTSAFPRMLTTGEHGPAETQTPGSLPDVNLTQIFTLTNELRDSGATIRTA

[4] = target: T2, huTIM-3/his; assay: Biacore, 2nd antibody injection; 1st antibody (competitor) huIgG1
[5] = target: T2, huTIM-3/his; assay: Biacore, 2nd antibody injection; 1st antibody (competitor) ABTIM3-hum03
[6] = target: T2, huTIM-3/his; assay: SPR (Biacore), run 3
[7] = target: T3, cynoTIM-3/Fc; assay: SPR (Biacore), run 3
[8] = target: T4, ratTIM-3/Fc (rat, UniProt P0C0K5 22-194, limits assumed); assay: SPR (Biacore), run 3
T4 construct: also called rat TIM-3/Fc protein
T4 sequence (looked up): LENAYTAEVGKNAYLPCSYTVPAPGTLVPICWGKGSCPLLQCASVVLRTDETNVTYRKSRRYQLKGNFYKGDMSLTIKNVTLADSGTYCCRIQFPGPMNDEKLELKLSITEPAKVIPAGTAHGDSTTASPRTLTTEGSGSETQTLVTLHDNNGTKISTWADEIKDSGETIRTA

[9] = target: T2, huTIM-3/his; assay: SPR (Biacore), mean KD
[10] = target: T3, cynoTIM-3/Fc; assay: SPR (Biacore), mean KD
[11] = target: T2, huTIM-3/his; assay: SPR (Biacore), run 1
[12] = target: T3, cynoTIM-3/Fc; assay: SPR (Biacore), run 1
[13] = target: T5, human TIM-3 expressed on cells (human, UniProt Q8TDQ0 22-301); assay: flow cytometry, 300.19 huTIM3 cells, detected by secondary Ab-FITC
T5 construct: also called huTIM-3; hTIM-3

[14] = target: T5, human TIM-3 expressed on cells; assay: flow cytometry competition on 300.19 hTIM3 cells in presence of ABTIM3; signal is MFI of 0.51ug/ml 22C1-PE
[15] = target: T5, human TIM-3 expressed on cells; assay: flow cytometry on cells expressing human TIM-3
[16] = target: T2, huTIM-3/his; assay: Biacore, 2nd antibody injection; 1st antibody (competitor) ABTIM3-hum21
[17] = target: T5, human TIM-3 expressed on cells; assay: flow cytometry competition on 300.19 hTIM-3 cells against PE-labelled ABTIM3-hum21
[18] = target: T6, human TIM-4 expressed in CHO cells (human, UniProt Q96H15 25-378); assay: flow cytometry on CHO cells expressing human TIM-4
T6 construct: whole, on cells
T6 sequence (looked up): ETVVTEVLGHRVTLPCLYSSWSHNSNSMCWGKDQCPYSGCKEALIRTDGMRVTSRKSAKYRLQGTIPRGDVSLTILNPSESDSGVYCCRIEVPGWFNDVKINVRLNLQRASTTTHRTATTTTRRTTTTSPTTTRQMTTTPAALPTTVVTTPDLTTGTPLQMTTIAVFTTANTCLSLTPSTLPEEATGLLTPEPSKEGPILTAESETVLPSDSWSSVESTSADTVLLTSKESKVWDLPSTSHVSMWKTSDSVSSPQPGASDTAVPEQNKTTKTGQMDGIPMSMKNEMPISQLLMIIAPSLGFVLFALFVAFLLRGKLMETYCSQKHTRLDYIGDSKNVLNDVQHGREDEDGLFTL

[19] = target: T7, cynomolgus TIM-3 expressed on transfected cells (cynomolgus monkey, UniProt A0A2K5U3G7 22-294); assay: flow cytometry (Median FI-FITC), CynoTim-3-300.19 cells
T7 construct: whole, on cells; also called cynoTIM-3; cynomolgus monkey TIM-3
T7 sequence: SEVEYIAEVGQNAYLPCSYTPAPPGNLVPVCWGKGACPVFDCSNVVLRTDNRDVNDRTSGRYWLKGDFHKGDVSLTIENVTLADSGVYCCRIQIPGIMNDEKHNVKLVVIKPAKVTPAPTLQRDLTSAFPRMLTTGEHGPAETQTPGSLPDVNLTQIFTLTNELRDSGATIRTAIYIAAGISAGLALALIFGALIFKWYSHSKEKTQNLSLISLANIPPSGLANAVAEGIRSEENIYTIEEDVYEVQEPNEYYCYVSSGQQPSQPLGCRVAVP

[20] = target: T5, human TIM-3 expressed on cells; assay: flow cytometry on activated human PBMCs, CD4 gated
[21] = target: T8, murine TIM-3 expressed in cells (murine, UniProt Q8VIM0 20-281); assay: flow cytometry on cells expressing murine TIM-3
T8 construct: whole, on cells; also called mouse TIM-3

[22] = target: T5, human TIM-3 expressed on cells; assay: flow cytometry on activated human PBMCs, CD8 gated
[23] = target: T1, TIM-3 (antigen; species and construct …); assay: FACS competition binding against the parent murine ABTIM3; cells not named on the sheet

T8 sequence (Q8VIM0 20-281): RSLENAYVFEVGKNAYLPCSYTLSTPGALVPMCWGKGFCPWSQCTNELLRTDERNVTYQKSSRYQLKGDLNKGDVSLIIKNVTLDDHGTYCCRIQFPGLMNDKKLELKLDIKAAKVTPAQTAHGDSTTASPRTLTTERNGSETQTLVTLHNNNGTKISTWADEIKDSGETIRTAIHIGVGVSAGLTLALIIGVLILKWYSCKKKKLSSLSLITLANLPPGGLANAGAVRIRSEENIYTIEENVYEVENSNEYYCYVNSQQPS

B1: ABTIM3-hum11 (antibody, human IgG4 S228P, kappa, V domains shown)
VH: QVQLVQSGAEVKKPGSSVKVSCKASGYTFTSYNMHWVRQAPGQGLEWMGDIYPGNGDTSYNQKFKGRVTITADKSTSTVYMELSSLRSEDTAVYYCARVGGAFPMDYWGQGTTVTVSS
VL: AIQLTQSPSSLSASVGDRVTITCRASESVEYYGTSLMQWYQQKPGKAPKLLIYAASNVESGVPSRFSGSGSGTDFTLTISSLQPEDFATYFCQQSRKDPSTFGGGTKVEIKR
notes: Humanized; Immobilized on Protein G beads and cross-linked with DSS in the HDx-MS experiment
With B1 the Kd [1] was 0.194 nM, the Kd [2] was 0.226 nM and the Kd [3] was 3.14 nM. For the same binder, the “change in RU” value [4] was 83.2 RU, the “change in RU” value [5] was 8.5 RU and the Kd [6] was 0.109 nM. It also gave a Kd [7] of 5.04 nM, a Kd [8] of 297 nM and a Kd [9] of 0.163 nM. It also gave a Kd [10] of 3.14 nM, a Kd [11] of 0.155 nM and a Kd [12] of 1.24 nM. For the same binder, the “EC50 (read off the curve)” value [13] was roughly 0.1 µg/mL, the “IC50 (read off the curve)” value [14] was roughly 0.2 µg/mL and the Kd [15] was 0.906 nM. The “change in RU” value [16] was 8.1 RU and the “IC50 (read off the curve)” value [17] was roughly 0.4 µg/mL.

B2: ABTIM3 (antibody, V domains shown)
VH: QVQLQQPGAELVKPGASVKMSCKASGYTFTSYNMHWIKQTPGQGLEWIGDIYPGNGDTSYNQKFKGKATLTADKSSSTVYMQLSSLTSEDSAVYYCARVGGAFPMDYWGQGTSVTVSS
VL: DIVLTQSPASLAVSLGQRATISCRASESVEYYGTSLMQWYQQKPGQPPKLLIYAASNVESGVPARFSGSGSGTDFSLNIHPVEEDDIAIYFCQQSRKDPSTFGGGTKLEIK
notes: Murine monoclonal antibody; also called murine anti-TIM-3 antibody ABTIM3; parent murine anti-TIM-3 antibody
In the case of B2, the binding result [18] is reported as “no binding”, the “EC50 (read off the curve)” value [13] is reported as roughly 0.1 µg/mL and the “IC50 (read off the curve)” value [14] is reported as roughly 0.2 µg/mL. The “EC50 (read off the curve)” value [19] was roughly 0.3 µg/mL, the Kd [20] was 0.29 nM and the Kd [15] was 1.04 nM. The binding result [21] was “no binding”, the Kd [22] was 0.3 nM and the “IC50 (read off the curve)” value [23] was roughly 0.2 µg/mL.
